The values below come from PMC5172437.

Series [1] addresses T1, human tumor necrosis factor alpha (hTNFa) (human, UniProt P01375 77-233). Nature of the series: ELONA.
Series [2] concerns the target T1, human tumor necrosis factor alpha ….
The target is the same in series [3]. Nature of the series: ELONA. The source holds these as a separate data set.
For series [4] the target is unchanged. This is another data set of the same source.
For series [5] the target is unchanged. Nature of the series: ELONA. The source holds these as a separate data set.

Where two headings read alike, the source gives them in different places.

T1 sequence (P01375 77-233): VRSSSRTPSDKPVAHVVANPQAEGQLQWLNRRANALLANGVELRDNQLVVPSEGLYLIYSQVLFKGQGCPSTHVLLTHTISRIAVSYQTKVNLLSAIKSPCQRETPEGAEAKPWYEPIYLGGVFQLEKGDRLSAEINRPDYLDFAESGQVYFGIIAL

As to GGUCCCACAUAGGUUGGUCUUGUUGUAUGGGCUGUUUGCA (ssRNA) [18.10 random region], the binding result in series [1] was “binds”.
In the case of UACGGAUUAGGUUGUAGCUCAGACCAGUA (ssRNA) [T4.14.8 (29 nt)], the binding result in series [2] is given as “binds”.
In the case of CAAGCCGAGGGGGAGUAUCUGAUGACAAUUCGGAGCUCCA (ssRNA) [11.7 random region], the binding result in series [3] is given as “binds”.
Turning to AGGACGUACUUGGAAAAGAGGCGCGAAGAACCUGGUAUGU (ssRNA) [8.6 random region], in series [1], the binding result is recorded as “binds”.
Regarding CCCCGGGUUCUGUAUGAUCCGACCGGUCAGAUAAGACCAC (ssRNA) [3.1 random region], in series [1], the binding result is recorded as “binds”.
GGAGUAUCUGAUGACAAUUCGGAGCUCC (ssRNA) [T3.11.7 (28 nt)]: the binding result in series [4] is “binds”.
For CGUUGUAGUAGUGGCUUGGGCAUAACUCAGUUAAACACUA (ssRNA) [20.4 random region], the binding result in series [1] is recorded as “binds”.
Turning to CGCAUCGUUUGCGUGGCGUGUCCGGGCGCCGAUUCGUAAA (ssRNA) [7.5 random region], in series [5], the binding result is reported as “binds”.
As to CAUGGGCUAGACCGGCAUAAAACUGCUGUAGUUGCACGCC (ssRNA) [17.9 random region], the binding result in series [1] was “binds”.
For the molecule UCAUGGUGUGUGAGUUAGCUCACGUGCCGUUUCGAAGGCG (ssRNA) [13.2 random region], the binding result in series [5] is reported as “binds”.
On to CGUGCUAGAUGCUACGAGUGGUCUCCUCACGUAGAAGGGG (ssRNA) [16.3 random region], for which the binding result in series [1] is recorded as “binds”.
For CGUAUAUACGGAUUAGGUUGUAGCUCAGACCAGUAAUGUC (ssRNA) [14.8 random region], the binding result in series [5] is listed as “binds”.
